IntAct's records for PubMed 27071417

B1: Caspase recruitment domain-containing protein 14 (Homo sapiens), Q9BXL6-2 (parent)
chain: MGELCRRDSALTALDEETLWEMMESHRHRIVRCICPSRLTPYLRQAKVLCQLDEEEVLHSPRLTNSAMRAGHLLDLLKTRGKNGAIAFLESLKFHNPDVYTLVTGLQPDVDFSNFSGLMETSKLTECLAGAIGSLQEELNQEKGQKEVLLRRCQQLQEHLGLAETRAEGLHQLEADHSRMKREVSAHFHEVLRLKDEMLSLSLHYSNALQEKELAASRCRSLQEELYLLKQELQRANMVSSCELELQEQSLRTASDQESGDEELNRLKEENEKLRSLTFSLAEKDILEQSLDEARGSRQELVERIHSLRERAVAAERQREQYWEEKEQTLLQFQKSKMACQLYREKVNALQAQVCELQKERDQAYSARDSAQREISQSLVEKDSLRRQVFELTDQVCELRTQLRQLQAEPPGVLKQEARTREPCPREKQRLVRMHAICPRDDSDCSLVSSTESQLLSDLSATSSRELVDSFRSSSPAPPSQQSLYKRVAEDFGEEPWSFSSCLEIPEGDPGALPGAKAGDPHLDYELLDTADLPQLESSLQPVSPGRLDVSESGVLMRRRPARRILSQVTMLAFQGDALLEQISVIGGNLTGIFIHRVTPGSAADQMALRPGTQIVMVDYEASEPLFKAVLEDTTLEEAVGLLRRVDGFCCLSVKVNTDGYKRLLQDLEAKVATSGDSFYIRVNLAMEGRAKGELQVHCNEVLHVTDTMFQGCGCWHAHRVNSYTMKDTAAHGTIPNYSR
partner: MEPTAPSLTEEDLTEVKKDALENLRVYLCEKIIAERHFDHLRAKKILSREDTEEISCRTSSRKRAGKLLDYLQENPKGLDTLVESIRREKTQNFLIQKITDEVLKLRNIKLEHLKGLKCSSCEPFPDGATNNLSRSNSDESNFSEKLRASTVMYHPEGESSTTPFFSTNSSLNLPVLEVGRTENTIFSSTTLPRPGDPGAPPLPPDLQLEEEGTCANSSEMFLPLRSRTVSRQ
B2: Caspase recruitment domain-containing protein 14 (Homo sapiens), Q9BXL6-1 (parent)
chain: MGELCRRDSALTALDEETLWEMMESHRHRIVRCICPSRLTPYLRQAKVLCQLDEEEVLHSPRLTNSAMRAGHLLDLLKTRGKNGAIAFLESLKFHNPDVYTLVTGLQPDVDFSNFSGLMETSKLTECLAGAIGSLQEELNQEKGQKEVLLRRCQQLQEHLGLAETRAEGLHQLEADHSRMKREVSAHFHEVLRLKDEMLSLSLHYSNALQEKELAASRCRSLQEELYLLKQELQRANMVSSCELELQEQSLRTASDQESGDEELNRLKEENEKLRSLTFSLAEKDILEQSLDEARGSRQELVERIHSLRERAVAAERQREQYWEEKEQTLLQFQKSKMACQLYREKVNALQAQVCELQKERDQAYSARDSAQREISQSLVEKDSLRRQVFELTDQVCELRTQLRQLQAEPPGVLKQEARTREPCPREKQRLVRMHAICPRDDSDCSLVSSTESQLLSDLSATSSRELVDSFRSSSPAPPSQQSLYKRVAEDFGEEPWSFSSCLEIPEGDPGALPGAKAGDPHLDYELLDTADLPQLESSLQPVSPGRLDVSESGVLMRRRPARRILSQVTMLAFQGDALLEQISVIGGNLTGIFIHRVTPGSAADQMALRPGTQIVMVDYEASEPLFKAVLEDTTLEEAVGLLRRVDGFCCLSVKVNTDGYKRLLQDLEAKVATSGDSFYIRVNLAMEGRAKGELQVHCNEVLHVTDTMFQGCGCWHAHRVNSYTMKDTAAHGTIPNYSRAQQQLIALIQDMTQQCTVTRKPSSGGPQKLVRIVSMDKAKASPLRLSFDRGQLDPSRMEGSSTCFWAESCLTLVPYTLVRPHRPARPRPVLLVPRAVGKILSEKLCLLQGFKKCLAEYLSQEEYEAWSQRGDIIQEGEVSGGRCWVTRHAVESLMEKNTHALLDVQLDSVCTLHRMDIFPIVIHVSVNEKMAKKLKKGLQRLGTSEEQLLEAARQEEGDLDRAPCLYSSLAPDGWSDLDGLLSCVRQAIADEQKKVVWTEQSPR
partner: B1 partner

How the values were obtained:
Conditions in all cases: with bcl10_human BCL10, O95999
[1] = variants of: B1
[2] = variants of: B1; remark: listed apart in the source
[3] = variants of: B2; remark: listed apart in the source
[4] = variants of: B2; remark: listed apart in the source

| effect of a mutation on the interaction [1] | effect of a mutation on the interaction [2] | effect of a mutation on the interaction [3] | effect of a mutation on the interaction [4] | Variant |
| --- | --- | --- | --- | --- |
| increasing interaction strength | with no effect |  |  | E138A |
| increasing interaction strength | with no effect |  |  | G117S |
|  |  | with no effect | increasing interaction strength | E138A |
